The text below walks through data of the Human Domainome abundance scans (Beltran et al. 2025).

± gives the uncertainty stated by the source.

B1: Histone-lysine N-methyltransferase 2A, residues 1148 to 1194; numbered along this chain, Q03164 (parent)
chain: KGRRSRRCGQCPGCQVPEDCGVCTNCLDKPKFGGRNIKKQCCKMRKC

Variants of B1 are the subject of the data set. Nature of the data set: abundance fitness (aPCA) (normalised: wild type 0, dead -1); higher = more abundant; growth selection in yeast, the domain comes from the species named. The conditions noted are these: Homo sapiens.
For KGRRSRRCGQCPGCQVPEDCGVCTNCLDKPSFGGRNIKKQCCKMRKC, the abundance fitness is -0.404 ± 0.075. With KGRRSRRCGQCPGCQVPEDCGVCTNCLDKPQFGGRNIKKQCCKMRKC the figure was -0.285 ± 0.11; with KGRRSRRCGQCPGCQVPEDCGVCTNCLDKPWFGGRNIKKQCCKMRKC, -0.685 ± 0.13. The same measure for KGRRSRRCGQCPGCQVPEDCGVCTNCLDKPHFGGRNIKKQCCKMRKC: -0.429 ± 0.093. The same measure for KGRRSRRCGQCPGCQVPEDCGVCTNCLDKPNFGGRNIKKQCCKMRKC: -0.159 ± 0.096; for KGRRSRRCGQCPGCQVPEDCGVCTNCLDKPYFGGRNIKKQCCKMRKC: -0.253 ± 0.086. On to KGRRSRRCGQCPGCQVPEDCGVCTNCLDKPIFGGRNIKKQCCKMRKC, for which the abundance fitness is -0.24 ± 0.084. The same measure for KGRRSRRCGQCPGCQVPEDCGVCTNCLDKPTFGGRNIKKQCCKMRKC: -0.264 ± 0.082. The same measure for KGRRSRRCGQCPGCQVPEDCGVCTNCLDKPFFGGRNIKKQCCKMRKC: -0.627 ± 0.088; for KGRRSRRCGQCPGCQVPEDCGVCTNCLDKPRFGGRNIKKQCCKMRKC: -0.311 ± 0.09; for KGRRSRRCGQCPGCQVPEDCGVCTNCLDKPGFGGRNIKKQCCKMRKC: -0.319 ± 0.12. With KGRRSRRCGQCPGCQVPEDCGVCTNCLDKPEFGGRNIKKQCCKMRKC the figure was -0.271 ± 0.19. For the variant KGRRSRRCGQCPGCQVPEDCGVCTNCLDKPPFGGRNIKKQCCKMRKC, the abundance fitness is -0.227 ± 0.086. For the variant KGRRSRRCGQCPGCQVPEDCGVCTNCLDKPAFGGRNIKKQCCKMRKC, the abundance fitness was -0.195 ± 0.1.

For KGRRSRRCGQCPGCQVPEDCGVCTNCLDKPMFGGRNIKKQCCKMRKC, the abundance fitness is -0.444 ± 0.1. With KGRRSRRCGQCPGCQVPEDCGVCTNCLDKPLFGGRNIKKQCCKMRKC, the abundance fitness is -0.316 ± 0.074. With KGRRSRRCGQCPGCQVPEDCGVCTNCLDKPKNGGRNIKKQCCKMRKC the figure was -0.228 ± 0.09. The same measure for KGRRSRRCGQCPGCQVPEDCGVCTNCLDKPKKGGRNIKKQCCKMRKC: -0.39 ± 0.13; for KGRRSRRCGQCPGCQVPEDCGVCTNCLDKPKQGGRNIKKQCCKMRKC: -0.09 ± 0.13. With KGRRSRRCGQCPGCQVPEDCGVCTNCLDKPKRGGRNIKKQCCKMRKC the figure was -0.496 ± 0.094; with KGRRSRRCGQCPGCQVPEDCGVCTNCLDKPKEGGRNIKKQCCKMRKC, 0.186 ± 0.17; with KGRRSRRCGQCPGCQVPEDCGVCTNCLDKPKAGGRNIKKQCCKMRKC, -0.013 ± 0.092. With KGRRSRRCGQCPGCQVPEDCGVCTNCLDKPKSGGRNIKKQCCKMRKC, the abundance fitness was -0.185 ± 0.077. With KGRRSRRCGQCPGCQVPEDCGVCTNCLDKPKCGGRNIKKQCCKMRKC the figure was -0.286 ± 0.093; with KGRRSRRCGQCPGCQVPEDCGVCTNCLDKPKTGGRNIKKQCCKMRKC, -0.272 ± 0.087.

As to KGRRSRRCGQCPGCQVPEDCGVCTNCLDKPKLGGRNIKKQCCKMRKC, the abundance fitness was -0.327 ± 0.075. With KGRRSRRCGQCPGCQVPEDCGVCTNCLDKPKDGGRNIKKQCCKMRKC the figure was 0.01 ± 0.098; with KGRRSRRCGQCPGCQVPEDCGVCTNCLDKPKIGGRNIKKQCCKMRKC, -0.641 ± 0.099.

On to KGRRSRRCGQCPGCQVPEDCGVCTNCLDKPKHGGRNIKKQCCKMRKC, for which the abundance fitness was -0.091 ± 0.078. KGRRSRRCGQCPGCQVPEDCGVCTNCLDKPKPGGRNIKKQCCKMRKC: the abundance fitness is -0.257 ± 0.087. Turning to KGRRSRRCGQCPGCQVPEDCGVCTNCWDKPKFGGRNIKKQCCKMRKC, the abundance fitness is -0.554 ± 0.12.

For the variant KGRRSRRCGQCPGCQVPEDCGVCTNCQDKPKFGGRNIKKQCCKMRKC, the abundance fitness was -0.064 ± 0.14. The same measure for KGRRSRRCGQCPGCQVPEDCGVCTNCGDKPKFGGRNIKKQCCKMRKC: -0.583 ± 0.11; for KGRRSRRCGQCPGCQVPEDCGVCTNCKDKPKFGGRNIKKQCCKMRKC: -0.293 ± 0.13.

On to KGRRSRRCGQCPGCQVPEDCGVCTNCEDKPKFGGRNIKKQCCKMRKC, for which the abundance fitness was -0.129 ± 0.13. Regarding KGRRSRRCGQCPGCQVPEDCGVCTNCADKPKFGGRNIKKQCCKMRKC, the abundance fitness was -0.257 ± 0.1. With KGRRSRRCGQCPGCQVPEDCGVCTNCNDKPKFGGRNIKKQCCKMRKC the figure was -0.518 ± 0.26. In the case of KGRRSRRCGQCPGCQVPEDCGVCTNCVDKPKFGGRNIKKQCCKMRKC, the abundance fitness was -0.539 ± 0.097. The same measure for KGRRSRRCGQCPGCQVPEDCGVCTNCDDKPKFGGRNIKKQCCKMRKC: -0.419 ± 0.19. The same measure for KGRRSRRCGQCPGCQVPEDCGVCTNCHDKPKFGGRNIKKQCCKMRKC: -0.34 ± 0.38; for KGRRSRRCGQCPGCQVPEDCGVCTNCSDKPKFGGRNIKKQCCKMRKC: -0.554 ± 0.1; for KGRRSRRCGQCPGCQVPEDCGVCTNCYDKPKFGGRNIKKQCCKMRKC: -0.334 ± 0.19.

On to KGRRSRRCGQCPGCQVPEDCGVCTNCFDKPKFGGRNIKKQCCKMRKC, for which the abundance fitness was -0.353 ± 0.15.

KGRRSRRCGQCPGCQVPEDCGVCTNCCDKPKFGGRNIKKQCCKMRKC: the abundance fitness is -0.569 ± 0.16. The same measure for KGRRSRRCGQCPGCQVPEDCGVCTNCPDKPKFGGRNIKKQCCKMRKC: -0.799 ± 0.2; for KGRRSRRCGQCPGCQVPEDCGVCTNCRDKPKFGGRNIKKQCCKMRKC: -0.35 ± 0.096. The same measure for KGRRSRRCGQCPGCQVPEDCGVCTNCLDNPKFGGRNIKKQCCKMRKC: -0.55 ± 0.3; for KGRRSRRCGQCPGCQVPEDCGVCTNCLDTPKFGGRNIKKQCCKMRKC: -0.397 ± 0.18. The same measure for KGRRSRRCGQCPGCQVPEDCGVCTNCLDSPKFGGRNIKKQCCKMRKC: -0.416 ± 0.13; for KGRRSRRCGQCPGCQVPEDCGVCTNCLDLPKFGGRNIKKQCCKMRKC: -0.671 ± 0.12.

KGRRSRRCGQCPGCQVPEDCGVCTNCLDPPKFGGRNIKKQCCKMRKC: the abundance fitness was -0.58 ± 0.22. With KGRRSRRCGQCPGCQVPEDCGVCTNCLDWPKFGGRNIKKQCCKMRKC the figure was -0.686 ± 0.2; with KGRRSRRCGQCPGCQVPEDCGVCTNCLDYPKFGGRNIKKQCCKMRKC, -0.564 ± 0.25. The same measure for KGRRSRRCGQCPGCQVPEDCGVCTNCLDRPKFGGRNIKKQCCKMRKC: -0.368 ± 0.11. In the case of KGRRSRRCGQCPGCQVPEDCGVCTNCLDVPKFGGRNIKKQCCKMRKC, the abundance fitness was -0.51 ± 0.14.
